Legend:
Assay in all cases: Biacore
[1] = biological target: T1, Human FGFR3b.mmh (REGN3152) (UniProt P22607 23-806)
T1 chain: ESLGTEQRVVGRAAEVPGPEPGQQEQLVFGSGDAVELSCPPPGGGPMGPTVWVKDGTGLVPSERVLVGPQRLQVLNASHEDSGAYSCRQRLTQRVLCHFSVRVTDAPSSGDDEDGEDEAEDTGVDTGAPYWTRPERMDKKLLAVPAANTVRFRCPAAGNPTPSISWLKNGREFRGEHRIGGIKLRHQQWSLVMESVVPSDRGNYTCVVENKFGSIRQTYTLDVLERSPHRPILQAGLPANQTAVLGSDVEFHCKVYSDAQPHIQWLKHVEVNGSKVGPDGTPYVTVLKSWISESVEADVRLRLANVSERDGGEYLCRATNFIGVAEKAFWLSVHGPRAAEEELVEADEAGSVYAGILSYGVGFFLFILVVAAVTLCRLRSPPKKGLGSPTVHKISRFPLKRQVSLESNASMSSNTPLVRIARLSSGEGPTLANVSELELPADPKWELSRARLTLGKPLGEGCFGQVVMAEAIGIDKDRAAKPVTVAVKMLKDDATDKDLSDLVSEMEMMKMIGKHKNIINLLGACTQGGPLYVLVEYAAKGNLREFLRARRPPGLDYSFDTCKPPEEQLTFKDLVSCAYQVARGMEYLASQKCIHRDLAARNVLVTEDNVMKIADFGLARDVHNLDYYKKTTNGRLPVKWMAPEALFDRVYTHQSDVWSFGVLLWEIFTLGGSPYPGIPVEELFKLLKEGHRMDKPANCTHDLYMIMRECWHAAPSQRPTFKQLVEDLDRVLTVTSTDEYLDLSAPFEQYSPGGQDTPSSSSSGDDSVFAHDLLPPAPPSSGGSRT

[2] = biological target: T2, Mouse FGFR3b.mmh (REGN3215) (UniProt Q61851 21-801)
T2 chain: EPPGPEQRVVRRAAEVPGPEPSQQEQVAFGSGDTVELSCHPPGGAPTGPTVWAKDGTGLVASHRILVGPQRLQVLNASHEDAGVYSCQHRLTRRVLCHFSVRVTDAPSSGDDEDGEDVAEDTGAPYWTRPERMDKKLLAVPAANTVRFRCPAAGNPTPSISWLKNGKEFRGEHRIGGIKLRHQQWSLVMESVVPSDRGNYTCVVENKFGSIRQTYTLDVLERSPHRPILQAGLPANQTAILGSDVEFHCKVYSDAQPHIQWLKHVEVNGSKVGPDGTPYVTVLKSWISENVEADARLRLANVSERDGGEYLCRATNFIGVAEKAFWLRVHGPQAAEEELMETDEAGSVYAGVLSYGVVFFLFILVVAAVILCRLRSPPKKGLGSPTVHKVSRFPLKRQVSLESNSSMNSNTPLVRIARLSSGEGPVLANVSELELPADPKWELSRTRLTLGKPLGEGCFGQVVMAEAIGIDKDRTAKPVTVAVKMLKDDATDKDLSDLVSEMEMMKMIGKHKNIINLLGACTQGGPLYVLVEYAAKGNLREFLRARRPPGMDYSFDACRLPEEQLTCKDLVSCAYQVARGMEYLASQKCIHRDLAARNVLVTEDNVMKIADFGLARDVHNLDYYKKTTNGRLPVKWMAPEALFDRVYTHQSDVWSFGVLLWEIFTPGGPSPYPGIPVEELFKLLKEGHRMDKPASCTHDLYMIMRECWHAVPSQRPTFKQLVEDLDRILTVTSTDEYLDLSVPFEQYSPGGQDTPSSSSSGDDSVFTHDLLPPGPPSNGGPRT

Mouse FGFR3b = biological target: T3, Mouse FGFR3b (UniProt Q61851 21-801)
T3 chain: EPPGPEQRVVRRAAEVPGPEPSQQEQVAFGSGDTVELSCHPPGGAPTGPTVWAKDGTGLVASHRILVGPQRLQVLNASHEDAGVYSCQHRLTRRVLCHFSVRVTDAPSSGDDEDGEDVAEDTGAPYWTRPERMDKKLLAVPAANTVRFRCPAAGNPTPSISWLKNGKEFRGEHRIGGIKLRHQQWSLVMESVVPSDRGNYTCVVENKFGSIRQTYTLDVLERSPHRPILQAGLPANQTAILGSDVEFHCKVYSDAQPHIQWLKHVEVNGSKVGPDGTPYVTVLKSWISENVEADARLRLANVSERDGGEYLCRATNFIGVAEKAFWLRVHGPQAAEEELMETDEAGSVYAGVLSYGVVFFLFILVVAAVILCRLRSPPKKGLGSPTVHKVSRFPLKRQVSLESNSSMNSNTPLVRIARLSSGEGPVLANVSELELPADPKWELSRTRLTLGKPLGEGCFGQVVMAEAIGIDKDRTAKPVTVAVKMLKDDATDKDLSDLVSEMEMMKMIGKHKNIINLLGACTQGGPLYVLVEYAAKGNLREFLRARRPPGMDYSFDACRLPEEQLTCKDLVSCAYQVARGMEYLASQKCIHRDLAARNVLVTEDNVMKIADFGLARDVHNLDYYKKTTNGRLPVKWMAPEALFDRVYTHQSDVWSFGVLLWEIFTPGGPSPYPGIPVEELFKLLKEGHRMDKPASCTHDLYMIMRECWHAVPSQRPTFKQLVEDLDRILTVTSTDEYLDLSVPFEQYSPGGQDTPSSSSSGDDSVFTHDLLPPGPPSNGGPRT

Human FGFR3b = biological target: T4, Human FGFR3b (UniProt P22607 23-806)
T4 chain: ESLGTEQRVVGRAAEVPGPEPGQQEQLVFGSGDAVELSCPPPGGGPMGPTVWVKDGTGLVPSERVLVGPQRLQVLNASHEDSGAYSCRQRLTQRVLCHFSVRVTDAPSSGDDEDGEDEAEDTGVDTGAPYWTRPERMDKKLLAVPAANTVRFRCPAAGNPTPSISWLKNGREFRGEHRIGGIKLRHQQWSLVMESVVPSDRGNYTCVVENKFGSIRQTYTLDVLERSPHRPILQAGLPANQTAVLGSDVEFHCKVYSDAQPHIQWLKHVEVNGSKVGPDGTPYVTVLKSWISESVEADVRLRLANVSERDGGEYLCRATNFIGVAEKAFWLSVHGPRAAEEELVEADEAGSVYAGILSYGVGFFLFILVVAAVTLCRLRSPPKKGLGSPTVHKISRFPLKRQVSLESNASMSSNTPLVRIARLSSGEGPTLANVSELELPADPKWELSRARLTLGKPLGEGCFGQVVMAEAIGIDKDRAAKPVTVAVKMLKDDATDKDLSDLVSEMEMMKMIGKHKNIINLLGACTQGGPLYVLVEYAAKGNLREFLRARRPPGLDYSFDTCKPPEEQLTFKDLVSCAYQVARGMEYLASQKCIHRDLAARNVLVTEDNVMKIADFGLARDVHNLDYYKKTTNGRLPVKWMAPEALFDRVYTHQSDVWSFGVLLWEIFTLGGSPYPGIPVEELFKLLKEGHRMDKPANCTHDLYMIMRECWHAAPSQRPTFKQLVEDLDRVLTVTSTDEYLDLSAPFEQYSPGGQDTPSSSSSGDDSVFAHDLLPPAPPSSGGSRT

Kd [1]: 2.59 nM | Kd [2]: 1.4 nM | Kd (Mouse FGFR3b): 1.4 nM | Kd (Human FGFR3b): 2.59 nM
B1: mAb063 (antibody, V domains shown)
VH: QVQLQESGPGLVKPSETLSLTCTVSGDSINSYFWSWIRQLPGKELEWIGHIYSSGSTRYNPSLQSRVTISIDTSKNQFSLKLSSVTAADTAVYYCARGASAVDYWGQGTLVTVSS
VL: EIVLTQSPGTLSLSPGERATLSCRTSQSISSGYLAWYQQKPGQAPRLLIYGASRRATGIPDRFSGSGSGTDFTLTISRLEPEDFVVYYCQQYGSSPYTFGQGTKLEIKR

Reference: patent US20240247069A1 (published 2024)
